B1: 5115-H1-Fc (Fc fusion)
chain: EVQLVESGGGLVQPGGSLRLSCAASGRTFSSFVMSWFRQAPGKEREFVSAISGSGSRAYYADSVKGRFTISRDNSKNTLYLQMNSLRAEDTAVYYCAANPRRATPDYTQYAYWGQGTLVTVSS
notes: Humanized VHH-Fc; Fc not specified; not shown: Fc
B2: 5115-H2-Fc (Fc fusion)
chain: B1 chain with E44G
notes: as for B1
B3: 5115-H3-Fc (Fc fusion)
chain: B1 chain with R45L
notes: as for B1
B4: 5115-H6-Fc (Fc fusion)
chain: B1 chain with S35M
notes: as for B1
B5: 5115-H4-M25-Fc (Fc fusion)
chain: B1 chain with R27V, E44G, R45L, Y59L, Y107L
notes: VHH-Fc; Fc not specified; not shown: Fc
B6: 5115-H1-M17-Fc (Fc fusion)
chain: B1 chain with A58S, Y59R, Y107L, T108I
notes: as for B5
B7: 5115-H1-M3-Fc (Fc fusion)
chain: B1 chain with Y59R, Y107L
notes: as for B5
B8: 5115-H4-M34-8-Fc (Fc fusion)
chain: B1 chain with S31T, S35A, E44G, R45L, A58S, Y59R, Y107L
notes: as for B5
B9: 5115-H4-M28-Fc (Fc fusion)
chain: B1 chain with E44G, R45L, S54G, T69A, Y107L, T108R
notes: as for B5
B10: 5115-H4-M34-3-Fc (Fc fusion)
chain: B1 chain with R27G, S35A, E44G, R45L, Y59R, Y107L, A111K
notes: as for B5
B11: 5115-H1-M39-Fc (Fc fusion)
chain: B1 chain with A58F, Y59R, Y107L, T108Q
notes: as for B5
B12: 5115-H4-M3-Fc (Fc fusion)
chain: B1 chain with S35A, E44G, R45L, Y59R
notes: as for B5
B13: 5115-H1-M40-Fc (Fc fusion)
chain: B1 chain with A58Q, Y59R, Y107L, T108R
notes: as for B5
B14: 5115-H4-M34-4-Fc (Fc fusion)
chain: B1 chain with R27G, S35A, E44G, R45L, S54F, Y59R, Y107L
notes: as for B5
B15: 5115-H4-M34-12-Fc (Fc fusion)
chain: B1 chain with T28P, S35A, E44G, R45L, Y59R, R102Y, Y107L
notes: as for B5
B16: 5115-H4-M52-Fc (Fc fusion)
chain: B1 chain with G26S, E44G, R45L, Y59N, Y107L
notes: as for B5
B17: 5115-H4-M34-16-Fc (Fc fusion)
chain: B1 chain with S35G, E44G, R45L, S54F, Y59R, Y107L
notes: as for B5
B18: 5115-H1-M36-Fc (Fc fusion)
chain: B1 chain with S30P, Y107L, T108R
notes: as for B5
B19: 5115-H1-M10-Fc (Fc fusion)
chain: B1 chain with R27G, D106G, Y107F
notes: as for B5
B20: 5115-H4-M34-9-Fc (Fc fusion)
chain: B1 chain with R27P, T28A, S35A, E44G, R45L, Y59R, Y107L
notes: as for B5
B21: 5115-H4-M48-Fc (Fc fusion)
chain: B1 chain with G16D, S31R, E44G, R45L, Y107L, T108R
notes: as for B5
B22: 5115-H4-M34-11-Fc (Fc fusion)
chain: B1 chain with G26T, S35A, E44G, R45L, Y59R, Y107L
notes: as for B5
B23: 5115-H4-M34-5-Fc (Fc fusion)
chain: B1 chain with G26M, R27T, S35A, E44G, R45L, S54H, Y59R, Y107L
notes: as for B5
B24: 5115-H4-M39-Fc (Fc fusion)
chain: B1 chain with E44G, R45L, A58S, Y59R, Y107L, T108R
notes: as for B5
B25: 5115-H4-M34-1-Fc (Fc fusion)
chain: B1 chain with S30N, S31R, S35A, E44G, R45L, S56Q, Y59R, Y107L
notes: as for B5
B26: 5115-H4-M41-Fc (Fc fusion)
chain: B1 chain with S35G, E44G, R45L, Y59R, A111L
notes: as for B5
B27: 5115-H1-M35-Fc (Fc fusion)
chain: B1 chain with Y59L, Y107L, T108R
notes: as for B5
B28: 5115-H1-M34-Fc (Fc fusion)
chain: B1 chain with A58M, Y59R, Y107M, T108R
notes: as for B5
B29: 5115-H4-M34-7-Fc (Fc fusion)
chain: B1 chain with S35A, E44G, R45L, S56R, R57Q, Y59R, Y107L, T108S, Q109R
notes: as for B5
B30: 5115-H4-M34-14-Fc (Fc fusion)
chain: B1 chain with G26R, R27G, S35A, E44G, R45L, S56K, R57V, Y59R, Y107L
notes: as for B5
B31: 5115-H4-M34-15-Fc (Fc fusion)
chain: B1 chain with F32L, S35A, E44G, R45L, Y59R, Y107L
notes: as for B5

Changes are numbered by the printed parent chain.

As a reminder, the EC50 is the midpoint of the concentration-response curve. Usually Kd stands for the equilibrium constant for the complex coming apart. The term koff denotes a measure of how fast the partners let go of each other. The kon is a measure of how fast the partners come together.

The target in one assay is human IGF-1R on BaF3 cells overexpressing human IGF-1R (human) (UniProt P08069). Briefly: cell-based or functional assay.
human IGF-1R on BaF3 cells overexpressing human IGF-1R (human), sequence (P08069 31-1367): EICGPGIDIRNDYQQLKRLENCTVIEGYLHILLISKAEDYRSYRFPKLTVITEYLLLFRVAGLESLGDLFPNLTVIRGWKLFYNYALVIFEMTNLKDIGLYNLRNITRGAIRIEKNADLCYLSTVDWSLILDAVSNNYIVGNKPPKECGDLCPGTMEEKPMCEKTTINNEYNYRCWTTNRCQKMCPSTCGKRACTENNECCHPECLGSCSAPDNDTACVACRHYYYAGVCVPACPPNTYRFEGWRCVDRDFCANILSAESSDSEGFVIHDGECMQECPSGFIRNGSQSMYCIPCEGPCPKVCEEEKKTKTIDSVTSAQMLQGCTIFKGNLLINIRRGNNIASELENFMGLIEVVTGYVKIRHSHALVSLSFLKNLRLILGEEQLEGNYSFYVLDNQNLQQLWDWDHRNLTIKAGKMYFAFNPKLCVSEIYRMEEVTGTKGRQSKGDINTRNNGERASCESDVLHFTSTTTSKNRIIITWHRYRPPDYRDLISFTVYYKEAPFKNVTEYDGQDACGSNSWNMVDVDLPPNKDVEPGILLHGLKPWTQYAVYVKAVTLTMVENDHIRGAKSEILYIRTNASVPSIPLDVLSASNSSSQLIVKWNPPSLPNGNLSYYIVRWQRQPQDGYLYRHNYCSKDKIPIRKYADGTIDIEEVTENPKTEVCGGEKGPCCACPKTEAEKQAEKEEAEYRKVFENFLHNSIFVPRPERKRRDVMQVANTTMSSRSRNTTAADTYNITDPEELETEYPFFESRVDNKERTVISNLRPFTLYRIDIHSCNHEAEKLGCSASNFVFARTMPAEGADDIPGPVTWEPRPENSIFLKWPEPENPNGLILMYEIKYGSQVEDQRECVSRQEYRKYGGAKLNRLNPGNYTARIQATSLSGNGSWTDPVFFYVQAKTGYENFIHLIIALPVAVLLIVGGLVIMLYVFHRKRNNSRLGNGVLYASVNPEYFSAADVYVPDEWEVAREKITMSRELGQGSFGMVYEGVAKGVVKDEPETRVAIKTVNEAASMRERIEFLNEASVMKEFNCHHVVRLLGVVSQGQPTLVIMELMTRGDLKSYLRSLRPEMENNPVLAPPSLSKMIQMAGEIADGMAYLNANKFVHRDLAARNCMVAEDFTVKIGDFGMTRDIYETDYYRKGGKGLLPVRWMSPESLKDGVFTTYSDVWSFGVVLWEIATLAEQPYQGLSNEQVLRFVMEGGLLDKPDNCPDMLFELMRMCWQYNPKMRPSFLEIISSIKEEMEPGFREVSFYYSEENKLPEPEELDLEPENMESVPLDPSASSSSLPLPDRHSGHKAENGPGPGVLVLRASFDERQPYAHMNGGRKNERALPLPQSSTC
As to Teprotumumab (antibody), the IC50, inhibition of IGF-1-induced proliferation of BaF3 cells overexpressing human IGF-1R came out at 121 ng/mL.

In another assay the target is T1, recombinant human IGF-1R-his (human, UniProt P08069 31-932).
T1 construct: Recombinant his-tagged protein; also called hIGF-1R-his; hIGF1R-his; not shown: his tag
T1 sequence (P08069 31-932 limits assumed): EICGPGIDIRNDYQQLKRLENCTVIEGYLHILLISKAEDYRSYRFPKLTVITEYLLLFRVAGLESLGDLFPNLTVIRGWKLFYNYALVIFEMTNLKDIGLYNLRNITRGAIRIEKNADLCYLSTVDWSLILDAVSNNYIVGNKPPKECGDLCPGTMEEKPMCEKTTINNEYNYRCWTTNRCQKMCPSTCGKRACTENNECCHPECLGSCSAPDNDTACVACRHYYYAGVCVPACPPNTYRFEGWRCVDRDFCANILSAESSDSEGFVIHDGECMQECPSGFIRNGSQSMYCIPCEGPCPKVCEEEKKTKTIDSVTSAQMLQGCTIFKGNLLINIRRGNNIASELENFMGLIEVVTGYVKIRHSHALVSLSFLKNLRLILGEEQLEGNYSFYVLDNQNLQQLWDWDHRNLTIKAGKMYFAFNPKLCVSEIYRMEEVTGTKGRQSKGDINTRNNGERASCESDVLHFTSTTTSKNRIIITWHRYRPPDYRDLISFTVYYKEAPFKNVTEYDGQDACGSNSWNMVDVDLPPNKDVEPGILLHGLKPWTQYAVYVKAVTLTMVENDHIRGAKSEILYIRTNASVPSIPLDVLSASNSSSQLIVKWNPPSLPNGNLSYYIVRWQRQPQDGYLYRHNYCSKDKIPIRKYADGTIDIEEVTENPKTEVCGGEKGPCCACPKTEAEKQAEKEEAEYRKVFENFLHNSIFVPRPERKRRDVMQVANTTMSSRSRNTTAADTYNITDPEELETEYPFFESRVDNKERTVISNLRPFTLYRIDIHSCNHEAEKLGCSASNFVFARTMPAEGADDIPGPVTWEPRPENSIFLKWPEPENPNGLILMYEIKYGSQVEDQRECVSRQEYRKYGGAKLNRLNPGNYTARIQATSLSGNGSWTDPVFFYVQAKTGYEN
Briefly: ELISA, coated hIGF-1R-his. On the procedure:
Recombinant human IGF-1R-his antigens (2 μg/mL) were added to a 96-well plate for coating overnight at 4° C. The plate was washed three times with PBST, and then was blocked with PBST containing 5% skimmed milk powder at room temperature for 2 h. The blocking solution was discarded, the plate was washed three times with PBST, and then 30 μL of nanobody-Fc fusion proteins of different concentrations were added and incubated at room temperature for 1 h. The plate was washed 3 times with PBST, horseradish peroxidase-labeled anti-human Fc antibodies (abcam, ab97225) were added at 30 μL/well and incubated at room temperature for 1 h, and the plate was washed 3 times with PBST. TMB substrate solution was added at 30 μL/well for color development in the dark for 5-30 min, 30 μL of 2 M H₂SO₄ was added to terminate the reaction, and the OD₄₅₀ was read using a microplate reader. A curve was fit and the EC₅₀ value was calculated using Graphpad Prism software.
For orientation: An ELISA detects its analyte on a solid surface through an enzyme-linked reagent.
For the molecule B1, the EC50 is 36.9 ng/mL.

B2: the half-maximal effective concentration (EC50) amounted to 65.2 ng/mL.

For the molecule B3, the 50% effective concentration (EC50) came to 92.5 ng/mL.

Regarding B4, the EC50 came to 92.9 ng/mL.

The target of another assay is T1, recombinant human IGF-1R-his. Nature of the assay: ELISA, coated hIGF-1R-his. This is another data set of the same source. On the procedure: The binding activity of the nanobody-Fc fusion proteins obtained after two rounds of mutant construction with the antigen proteins (recombinant human IGF-1R-His) was detected by an ELISA method: 2 μg/mL recombinant human IGF1R-His antigen proteins were added to a 96-well ELISA plate, at 30 μL/well, for coating overnight at 4° C. The plate was washed three times with PBST. PBS containing 5% skim milk powder was added for blocking at room temperature for 2 h. The plate was washed three times with PBST. The nanobody-Fc fusion proteins were serially diluted 3-fold, and the nanobody-Fc fusion proteins of different concentrations were added to each well at 30 μL/well and incubated at room temperature for 1 h. The plate was washed three times with PBST, and horseradish peroxidase-labeled anti-human Fc antibodies were added at 30 μL/well and incubated at room temperature for 50 min. The plate was washed three times with PBST. TMB substrate solution was added at 30 μL/well for color development in the dark for 1-5 min, 30 μL of 2 M hydrochloric acid was added to terminate the reaction, and the OD₄₅₀ was read using a microplate reader. Curve fitting was conducted and the EC₅₀ value was calculated using Graphpad Prism software.
As for B5, the EC50 worked out at 215 pM.

Regarding B6, the EC50 amounted to 1.84 ng/mL.

On to B7, for which the concentration for a half-maximal effect (EC50) was 1.22 ng/mL.

Take B8: the EC50 was determined as 3.79 ng/mL.

Take B9: the EC50 is 299 pM.

Take B10: the EC50 is 3.64 ng/mL.

With B11, the EC50 stood at 1.06 ng/mL.

For B12, the half-maximal effective concentration (EC50) was found to be 330 pM.

With B13, the EC50 came out at 1.23 ng/mL.

B14: the EC50 stood at 6.24 ng/mL.

In the case of B15, the EC50 was 3.33 ng/mL.

As to B16, the EC50 came out at 183 pM.

On to B17, for which the half-maximal effective concentration (EC50) amounted to 2.4 ng/mL.

As for B18, the half-maximal effective concentration (EC50) was 1.43 ng/mL.

Regarding B19, the EC50 was found to be 1.7 ng/mL.

As to B20, the EC50 turned out to be 4.05 ng/mL.

Consider B21, for which the EC50 was 475 pM.

Turning to B22, the EC50 worked out at 2.33 ng/mL.

Consider B23, for which the EC50 was 2.15 ng/mL.

Regarding B24, the EC50 worked out at 210 pM.

As for B25, the EC50 was 3.92 ng/mL.

As for B26, the 50% effective concentration (EC50) came out at 175 pM.

In the case of B27, the 50% effective concentration (EC50) is 1.47 ng/mL.

Turning to B28, the EC50 worked out at 2.05 ng/mL.

For the molecule B29, the concentration for a half-maximal effect (EC50) turned out to be 5.36 ng/mL.

On to B30, for which the EC50 was found to be 3.28 ng/mL.

On to B31, for which the EC50 was determined as 2.25 ng/mL.

The next assay has the same target. Nature of the assay: SPR (BIAcore), hIGF-1R-his on CM5 chip, Test 1. On the procedure: The affinity of the nanobody fusion proteins to recombinant human IGF-1R was detected using a BIAcore instrument. […] The flow rate was set to 10 μL/min. The chip activation time of a mixture of EDC and NHS was the default value of 420 s. The recombinant human IGF-1R-his was coupled to 800 RU on a CM5 chip under the preset coupling mode, and unbound activated groups were blocked with ethanolamine. Two-fold serially diluted nanobody-Fc fusion proteins (five concentrations of each fusion protein were detected) were injected sequentially at a flow rate of 50 μL/min at 25° C., with an association time of 120 s and a dissociation time of 600 s. A curve was fit with a 1:1 Langmuir binding model using the BIAcore T200 analysis software to determine kinetic constants such as the association rate constant, the dissociation rate constant, and the association dissociation constant.
As for B1, the equilibrium dissociation constant (Kd) is 31700 pM, the koff turned out to be 0.00211 s⁻¹ and the on-rate (kon) came to 66800 M⁻¹ s⁻¹.

B6: the Kd was determined as 101 pM, the off-rate constant (koff) amounted to 0.000465 s⁻¹ and the on-rate constant (kon) stood at 4.62e+06 M⁻¹ s⁻¹.

With B7, the Kd was found to be 1850 pM, the off-rate (koff) was found to be 0.00207 s⁻¹ and the association rate constant (kon) is 1.12e+06 M⁻¹ s⁻¹.

B19: the Kd is 1150 pM, the koff turned out to be 0.00123 s⁻¹ and the kon was found to be 1.07e+06 M⁻¹ s⁻¹.
